Measurements reported in patent US20120114557A1 (published 2012).
Bridge positions count the residues as written; N and C are the ends. Primed or numbered codes have the meaning given here. Side chains are listed from the residue outwards. Ends that are not written are not given here. Gd^T″ = GdDTPA-thiourea; Gd^ = not defined here

Columns and labels:
human collagen type I [1] = biological target: T1, human collagen type I (human, UniProt P02452 162-1218; P08123 80-1119); assay: dried collagen assay, 5 uM peptide
T1 construct: biotinylated collagen I in the phage ELISA; also called dried human collagen; Collagen I
Description: An additional 90 μL is reserved in a HPLC glass vial as a measure of the total concentration.

rat collagen type I = biological target: T2, rat collagen type I (rat, UniProt P02454 152-1207; P02466 86-1125); assay: dried collagen assay, 5 uM peptide
T2 construct: rat tail, Upstate 08-115; gelled and dried in wells; also called dried rat collagen; rat collagen (acid soluble, type I, rat tail)

human collagen type I [2] = biological target: T1, human collagen type I; assay: dried collagen assay, 5 uM peptide; remark: listed apart in the source
[3] = biological target: T3, human collagen (acid soluble, extracted from placenta; type I) (human, UniProt P02452 162-1218; P08123 80-1119); assay: dried collagen assay, 5 uM each, 37 C, pH 7.4
T3 construct: mature; Tissue-extracted collagen; also called human collagen type I
Description: (§1) For the final assay, a 1:10 volume of 10×PBS (100 mM NaH₂PO₄, 1.5 M NaCl pH 7.4) is added to the collagen solution (final 1×PBS) and incubated at 37° C. for 2 hours.

[4] = biological target: T4, rat collagen (acid soluble, type I, rat tail) (rat, UniProt P02454 152-1207; P02466 86-1125); assay: dried collagen assay, 5 uM each, 37 C, pH 7.4
T4 construct: mature; Tissue-extracted collagen; also called rat collagen type I
Description: as §1

T1 sequence (P02452 162-1218 limits assumed, chain 1 of 2): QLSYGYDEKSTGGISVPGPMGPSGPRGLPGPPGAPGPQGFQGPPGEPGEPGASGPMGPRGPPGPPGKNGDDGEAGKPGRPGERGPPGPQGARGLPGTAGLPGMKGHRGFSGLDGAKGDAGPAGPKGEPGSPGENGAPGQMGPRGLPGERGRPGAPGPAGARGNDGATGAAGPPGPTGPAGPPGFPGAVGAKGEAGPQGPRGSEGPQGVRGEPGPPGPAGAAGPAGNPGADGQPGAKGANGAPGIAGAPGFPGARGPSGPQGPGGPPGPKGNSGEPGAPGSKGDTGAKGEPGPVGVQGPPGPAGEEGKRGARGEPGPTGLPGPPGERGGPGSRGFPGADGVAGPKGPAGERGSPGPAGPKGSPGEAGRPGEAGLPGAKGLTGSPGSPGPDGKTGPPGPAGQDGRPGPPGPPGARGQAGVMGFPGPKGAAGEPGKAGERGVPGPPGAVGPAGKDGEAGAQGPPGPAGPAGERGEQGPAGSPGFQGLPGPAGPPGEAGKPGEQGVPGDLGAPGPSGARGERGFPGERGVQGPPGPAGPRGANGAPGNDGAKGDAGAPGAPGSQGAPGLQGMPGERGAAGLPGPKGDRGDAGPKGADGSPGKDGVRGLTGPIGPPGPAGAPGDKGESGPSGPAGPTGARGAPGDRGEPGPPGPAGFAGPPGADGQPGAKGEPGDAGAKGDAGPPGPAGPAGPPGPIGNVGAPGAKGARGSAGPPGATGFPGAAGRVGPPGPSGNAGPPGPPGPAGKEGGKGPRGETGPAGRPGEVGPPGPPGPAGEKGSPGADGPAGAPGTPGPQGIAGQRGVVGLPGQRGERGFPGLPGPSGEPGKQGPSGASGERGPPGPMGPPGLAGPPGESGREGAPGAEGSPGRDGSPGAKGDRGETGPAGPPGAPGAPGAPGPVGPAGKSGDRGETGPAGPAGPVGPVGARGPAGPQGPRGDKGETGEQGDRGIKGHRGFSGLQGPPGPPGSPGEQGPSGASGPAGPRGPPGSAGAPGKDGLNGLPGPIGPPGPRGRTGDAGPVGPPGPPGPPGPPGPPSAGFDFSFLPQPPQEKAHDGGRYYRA
T1 sequence (P08123 80-1119 limits assumed, chain 2 of 2): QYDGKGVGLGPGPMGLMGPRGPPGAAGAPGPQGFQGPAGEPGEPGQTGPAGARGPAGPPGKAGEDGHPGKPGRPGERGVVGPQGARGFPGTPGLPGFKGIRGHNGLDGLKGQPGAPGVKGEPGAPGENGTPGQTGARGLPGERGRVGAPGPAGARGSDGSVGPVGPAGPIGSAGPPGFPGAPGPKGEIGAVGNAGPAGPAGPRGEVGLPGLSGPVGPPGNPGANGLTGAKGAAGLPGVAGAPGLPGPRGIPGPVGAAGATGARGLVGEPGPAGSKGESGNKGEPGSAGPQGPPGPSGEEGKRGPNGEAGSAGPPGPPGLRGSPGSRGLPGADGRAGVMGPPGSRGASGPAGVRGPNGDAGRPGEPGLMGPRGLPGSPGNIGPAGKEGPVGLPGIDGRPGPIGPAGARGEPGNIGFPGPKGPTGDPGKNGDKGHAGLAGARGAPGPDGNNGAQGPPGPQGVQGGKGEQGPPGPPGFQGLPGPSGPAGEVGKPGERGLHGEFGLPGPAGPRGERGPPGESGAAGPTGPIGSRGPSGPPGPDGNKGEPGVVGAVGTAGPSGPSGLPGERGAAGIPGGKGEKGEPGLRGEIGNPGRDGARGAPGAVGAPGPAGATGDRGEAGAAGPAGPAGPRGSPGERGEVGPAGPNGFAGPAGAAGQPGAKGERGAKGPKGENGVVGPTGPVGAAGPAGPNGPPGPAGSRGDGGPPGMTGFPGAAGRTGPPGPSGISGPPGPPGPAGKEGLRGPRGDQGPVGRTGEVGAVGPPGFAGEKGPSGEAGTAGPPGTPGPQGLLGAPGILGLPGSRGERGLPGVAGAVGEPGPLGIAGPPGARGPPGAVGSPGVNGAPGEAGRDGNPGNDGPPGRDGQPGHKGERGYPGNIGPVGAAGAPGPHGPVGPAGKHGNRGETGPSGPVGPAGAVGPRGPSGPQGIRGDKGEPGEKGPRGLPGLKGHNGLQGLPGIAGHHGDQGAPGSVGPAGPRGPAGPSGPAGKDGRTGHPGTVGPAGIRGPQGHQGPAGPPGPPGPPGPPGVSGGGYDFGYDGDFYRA
T3 sequence (P02452 162-1218, chain 1 of 2): as the sequence (P02452 162-1218 limits assumed, chain 1 of 2) above
T3 sequence (P08123 80-1119, chain 2 of 2): as the sequence (P08123 80-1119 limits assumed, chain 2 of 2) above
T4 sequence (P02454 152-1207, chain 1 of 2): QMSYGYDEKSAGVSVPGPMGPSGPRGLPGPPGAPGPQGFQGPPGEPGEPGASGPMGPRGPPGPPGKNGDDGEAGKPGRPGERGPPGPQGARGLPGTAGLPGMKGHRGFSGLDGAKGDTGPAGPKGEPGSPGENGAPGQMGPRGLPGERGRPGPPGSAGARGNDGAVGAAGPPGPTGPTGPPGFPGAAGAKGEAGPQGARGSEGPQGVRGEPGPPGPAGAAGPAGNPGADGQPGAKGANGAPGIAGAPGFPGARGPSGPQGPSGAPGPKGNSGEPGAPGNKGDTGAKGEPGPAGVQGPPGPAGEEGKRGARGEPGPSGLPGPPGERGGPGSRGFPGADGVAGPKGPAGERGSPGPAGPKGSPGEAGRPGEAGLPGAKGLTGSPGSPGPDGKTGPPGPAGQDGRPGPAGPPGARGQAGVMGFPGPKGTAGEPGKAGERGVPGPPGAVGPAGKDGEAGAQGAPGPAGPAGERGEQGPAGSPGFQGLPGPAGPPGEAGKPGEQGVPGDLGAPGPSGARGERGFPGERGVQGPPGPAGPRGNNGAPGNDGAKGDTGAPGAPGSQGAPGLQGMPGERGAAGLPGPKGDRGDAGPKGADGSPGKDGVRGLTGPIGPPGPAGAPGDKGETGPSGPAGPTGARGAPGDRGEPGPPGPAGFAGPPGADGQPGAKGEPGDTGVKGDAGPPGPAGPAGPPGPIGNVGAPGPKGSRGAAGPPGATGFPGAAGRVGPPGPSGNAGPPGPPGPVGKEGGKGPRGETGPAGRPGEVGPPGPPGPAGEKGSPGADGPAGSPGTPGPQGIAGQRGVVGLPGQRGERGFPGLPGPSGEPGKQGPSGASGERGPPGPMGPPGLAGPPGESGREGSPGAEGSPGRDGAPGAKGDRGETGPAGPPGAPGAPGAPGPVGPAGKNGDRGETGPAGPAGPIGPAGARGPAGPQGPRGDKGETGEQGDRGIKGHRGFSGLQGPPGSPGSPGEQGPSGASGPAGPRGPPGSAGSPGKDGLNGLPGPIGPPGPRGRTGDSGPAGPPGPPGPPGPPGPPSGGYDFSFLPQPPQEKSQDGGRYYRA
T4 sequence (P02466 86-1125, chain 2 of 2): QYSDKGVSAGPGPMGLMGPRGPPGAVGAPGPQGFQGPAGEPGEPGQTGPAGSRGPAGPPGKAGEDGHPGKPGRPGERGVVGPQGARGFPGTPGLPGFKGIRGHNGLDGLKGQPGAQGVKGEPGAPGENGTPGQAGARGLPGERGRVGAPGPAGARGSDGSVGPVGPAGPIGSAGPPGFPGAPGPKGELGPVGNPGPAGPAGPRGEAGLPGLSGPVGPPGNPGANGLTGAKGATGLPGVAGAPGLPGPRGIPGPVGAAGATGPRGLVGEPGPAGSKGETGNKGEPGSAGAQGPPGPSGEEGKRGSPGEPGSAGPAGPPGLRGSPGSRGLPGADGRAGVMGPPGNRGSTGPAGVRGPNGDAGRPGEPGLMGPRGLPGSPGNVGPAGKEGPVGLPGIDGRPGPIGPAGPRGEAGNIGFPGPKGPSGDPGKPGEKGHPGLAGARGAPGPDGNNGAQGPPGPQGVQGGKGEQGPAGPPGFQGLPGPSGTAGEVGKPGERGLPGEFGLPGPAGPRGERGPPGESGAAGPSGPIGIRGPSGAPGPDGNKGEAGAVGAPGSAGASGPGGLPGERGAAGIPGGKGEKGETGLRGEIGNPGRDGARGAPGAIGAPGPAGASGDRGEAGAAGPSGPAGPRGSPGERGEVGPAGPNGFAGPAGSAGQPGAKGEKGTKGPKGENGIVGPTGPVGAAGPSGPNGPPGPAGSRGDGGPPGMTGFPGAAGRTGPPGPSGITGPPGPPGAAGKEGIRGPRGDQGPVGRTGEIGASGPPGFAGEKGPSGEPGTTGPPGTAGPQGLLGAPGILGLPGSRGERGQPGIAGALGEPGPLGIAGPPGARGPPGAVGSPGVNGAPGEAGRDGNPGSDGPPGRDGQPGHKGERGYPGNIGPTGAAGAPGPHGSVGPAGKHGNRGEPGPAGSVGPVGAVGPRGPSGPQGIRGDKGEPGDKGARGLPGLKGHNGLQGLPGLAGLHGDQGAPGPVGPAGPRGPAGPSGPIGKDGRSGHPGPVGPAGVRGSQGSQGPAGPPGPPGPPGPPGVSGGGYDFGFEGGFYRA
T2 sequence (P02454 152-1207, chain 1 of 2): as the sequence (P02454 152-1207, chain 1 of 2) above
T2 sequence (P02466 86-1125, chain 2 of 2): as the sequence (P02466 86-1125, chain 2 of 2) above

Binder	Dried Human Collagen Binding (human collagen type I [1])	also measured
RWSCVLDADGWVCSDN (disulfide 4-13 (inferred), also called TN-10 peptide) [SEQ ID NO: 66]	6%	–
GWSCHSMDMQWHCDFS (disulfide 4-13 (inferred), also called TN-10 peptide) [SEQ ID NO: 67]	5%	–
SWYCNNGSYGQWHCEHR (disulfide 4-14 (inferred), also called TN-11 peptide) [SEQ ID NO: 80]	6%	–
GWQCFGASDWHCTWV (disulfide 4-12, also called TN-9 peptide) [SEQ ID NO: 8]	9%	–
YHACYQAGCYIY (disulfide 4-9 (inferred), also called TN-6 peptide) [SEQ ID NO: 108]	–	% Collagen Binding, Dried Rat (rat collagen type I): 12%; % Collagen Binding, Dried Human (human collagen type I [2]): 5%
ERNCVLNDFRWTCGGD (disulfide 4-13 (inferred), also called TN-10 peptide) [SEQ ID NO: 75]	10%	–
{Gd^}-TGQWHCTTRFPHHYCLYG (not fully specified (some residues, bridges); printed as Gd^T.G.Q.W.H.C.T.T.R.F.P.H.H.y.C.L.Y.G; reading uncertain; also: series closure stated: disulfide, also called Comp ID NO; 864) [Compound ID 864]	–	Human binding [3]: 64%
{Gd^T″}-GK([Gly-Gd^T″])WHCTTLFPHHVCLYG (disulfide 5-14 (inferred), also called Comp ID NO; 966) [Compound ID 966]	–	Rat binding [4]: 8%
{Gd^T″}-GQWTCSGDEYTWHCNYE-{GTE} (disulfide 5-14 (inferred), also called Comp ID NO; 837) [Compound ID 837]	–	Human binding [3]: 22%; Rat binding [4]: 10%

Further lines, with some results ahead:

Dried Human Collagen Binding (human collagen type I [1])	Binder	also measured
5%	SWHCFLENHHWMCSDH (disulfide 4-13 (inferred), also called TN-10 peptide) [SEQ ID NO: 68]	–
12%	GWQCQGTDSLDWKCLYM (disulfide 4-14 (inferred), also called TN-11 peptide) [SEQ ID NO: 77]	–
5%	WQVCADSPGVITYCYTY (disulfide 4-14 (inferred), also called TN-11 peptide) [SEQ ID NO: 98]	–
